Experimental data reported in PMC12851022, “Targeting the Spliceosomal Protein USP39 Through Allosteric Ligands and PROTAC‐Induced Degradation” (Angewandte Chemie (International Ed. in English), 2025).

Columns and labels:
[1] = biological target: VHL_m (Δ91–121) (UniProt P40337)
[2] = biological target: VHL_WT-EGFP (UniProt P40337)
Chain of VHL_WT-EGFP (P40337 whole entry): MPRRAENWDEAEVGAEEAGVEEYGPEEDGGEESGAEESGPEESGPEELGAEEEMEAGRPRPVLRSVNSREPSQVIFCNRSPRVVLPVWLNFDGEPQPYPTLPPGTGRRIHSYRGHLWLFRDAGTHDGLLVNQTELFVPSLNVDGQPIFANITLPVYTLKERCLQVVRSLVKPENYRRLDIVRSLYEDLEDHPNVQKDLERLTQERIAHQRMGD

Chain of VHL_m (Δ91–121) (P40337 other isoform, or with tags, fused parts or gaps mutant): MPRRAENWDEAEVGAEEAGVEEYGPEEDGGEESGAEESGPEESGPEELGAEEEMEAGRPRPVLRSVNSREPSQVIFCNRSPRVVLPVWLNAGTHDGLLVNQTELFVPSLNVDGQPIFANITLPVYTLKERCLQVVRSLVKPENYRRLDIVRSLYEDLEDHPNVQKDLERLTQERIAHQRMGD

- fold reduction of USP39 PROTAC V1-induced degradation of USP39-OFP against cells with VHL WT-EGFP, fluorescence assay in HEK293T cells expressing VHL m [1]: > 80 fold
- DC50 of USP39 PROTAC V1-induced degradation of USP39-OFP, fluorescence assay in HEK293T cells co-expressing USP39 OFP and VHL WT-EGFP [2]: 1 nM
B1: USP39-OFP (natural protein)
chain: MSGRSKRESRGSTRGKRESESRGSSGRVKRERDREREPEAASSRGSPVRVKREFEPASAREAPASVVPFVRVKREREVDEDSEPEREVRAKNGRVDSEDRRSRHCPYLDTINRSVLDFDFEKLCSISLSHINAYACLVCGKYFQGRGLKSHAYIHSVQFSHHVFLNLHTLKFYCLPDNYEIIDSSLEDITYVLKPTFTKQQIANLDKQAKLSRAYDGTTYLPGIVGLNNIKANDYANAVLQALSNVPPLRNYFLEEDNYKNIKRPPGDIMFLLVQRFGELMRKLWNPRNFKAHVSPHEMLQAVVLCSKKTFQITKQGDGVDFLSWFLNALHSALGGTKKKKKTIVTDVFQGSMRIFTKKLPHPDLPAEEKEQLLHNDEYQETMVESTFMYLTLDLPTAPLYKDEKEQLIIPQVPLFNILAKFNGITEKEYKTYKENFLKRFQLTKLPPYLIFCIKRFTKNNFFVEKNPTIVNFPITNVDLREYLSEEVQAVHKNTTYDLIANIVHDGKPSEGSYRIHVLHHGTGKWYELQDLQVTDILPQMITLSEAYIQIWKRRDNDETNQQGA
